From ChEMBL document CHEMBL4627406, “Amino Acids Bearing Aromatic or Heteroaromatic Substituents as a New Class of Ligands for the Lysosomal Sialic Acid Transporter Sialin” (J Med Chem, 2020)

Legend:
[1] = compound: O=C(N[C@@H](CSCc1cc(=O)oc2cc(O)ccc12)C(=O)O)OCC1c2ccccc2-c2ccccc21; assay: Non-competitive inhibition of human recombinant-Sialin expressed in HEK293 cells assessed as reduction in [3H]Neu5Ac uptake by measuring Km level at 3 uM incubated for 15 mins by liquid scintillation counting method (reference value: 1.4 +/- 0.5 mM)
[2] = compound: CC(C)C[C@H](NC(=O)OCC1c2ccccc2-c2ccccc21)C(=O)O; assay: Non-competitive inhibition of human recombinant-Sialin expressed in HEK293 cells assessed as reduction in [3H]Neu5Ac uptake by measuring Km level at 10 uM incubated for 15 mins by liquid scintillation counting method (reference value: 1.6 +/- 0.3 mM); format: cell-based

B1: Sialin (Homo sapiens), Q9NRA2 (protein)
chain: MRSPVRDLARNDGEESTDRTPLLPGAPRAEAAPVCCSARYNLAILAFFGFFIVYALRVNLSVALVDMVDSNTTLEDNRTSKACPEHSAPIKVHHNQTGKKYQWDAETQGWILGSFFYGYIITQIPGGYVASKIGGKMLLGFGILGTAVLTLFTPIAADLGVGPLIVLRALEGLGEGVTFPAMHAMWSSWAPPLERSKLLSISYAGAQLGTVISLPLSGIICYYMNWTYVFYFFGTIGIFWFLLWIWLVSDTPQKHKRISHYEKEYILSSLRNQLSSQKSVPWVPILKSLPLWAIVVAHFSYNWTFYTLLTLLPTYMKEILRFNVQENGFLSSLPYLGSWLCMILSGQAADNLRAKWNFSTLCVRRIFSLIGMIGPAVFLVAAGFIGCDYSLAVAFLTISTTLGGFCSSGFSINHLDIAPSYAGILLGITNTFATIPGMVGPVIAKSLTPDNTVGEWQTVFYIAAAINVFGAIFFTLFAKGEVQNWALNDHHGHRH
In the case of B1, the Km [1] is reported as 1700 µM and the Km [2] is reported as 1300 µM.
